The results in this text go back to US20220002701A1.

The target in assay [1] is SARS-CoV-2 S protein containing D614 with the C-terminal 19 residues of the cytoplasmic tail deleted, on MLV pseudovirus (SARS-CoV-2) (UniProt P0DTC2). In words: cell-based or functional assay.
Assay [2] concerns the target stabilized soluble SARS-CoV-2 S ectodomain trimer in the pre-fusion conformation (SARS-CoV-2; bacteriophage T4) (UniProt P0DTC2).

Chain of ACE2615-LL-foldon (Q9BYF1 18-615, tags left off, one chain of several): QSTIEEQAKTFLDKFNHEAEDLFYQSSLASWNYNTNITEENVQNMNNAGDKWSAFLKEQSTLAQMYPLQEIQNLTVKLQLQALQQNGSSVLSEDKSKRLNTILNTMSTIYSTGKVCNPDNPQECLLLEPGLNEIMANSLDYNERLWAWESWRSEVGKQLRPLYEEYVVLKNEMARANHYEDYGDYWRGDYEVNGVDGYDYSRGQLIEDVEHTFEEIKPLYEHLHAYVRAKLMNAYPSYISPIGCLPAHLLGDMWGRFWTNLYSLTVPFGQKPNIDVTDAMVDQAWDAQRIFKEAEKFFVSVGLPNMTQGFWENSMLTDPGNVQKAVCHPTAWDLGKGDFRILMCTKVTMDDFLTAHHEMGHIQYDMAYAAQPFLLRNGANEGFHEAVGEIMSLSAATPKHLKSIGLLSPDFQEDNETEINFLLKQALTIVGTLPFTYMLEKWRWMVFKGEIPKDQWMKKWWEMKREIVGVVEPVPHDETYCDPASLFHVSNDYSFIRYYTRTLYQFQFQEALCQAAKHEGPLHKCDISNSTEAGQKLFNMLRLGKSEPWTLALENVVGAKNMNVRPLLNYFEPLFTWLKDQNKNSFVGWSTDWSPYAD

Substance “ACE2615-LL-foldon (from UniProt Q9BYF1 18-615; P10104 458-484) (receptor)” returned an IC50, inhibition of MLV-based pseudovirus infection of ACE2-expressing cells in assay [1] of 0.6 µg/mL. Further, in assay [2], the equilibrium dissociation constant (Kd) (in general, the free concentration of one partner at which half of the binding sites on the other are occupied at equilibrium, for simple one-to-one binding) was found to be 0.624 nM; the ka2 amounted to 3.3; the kdis2 was 0.365; the koff (as a rule, the first-order rate constant of dissociation) was 8.26e-05 s⁻¹. Also, the on-rate (kon) (usually a measure of how fast the partners come together) in assay [2] stood at 133000 M⁻¹ s⁻¹.
